We go through two proteins from publication PMC12263829 (Nature Communications, 2025).

This series deals with the molecule itself. Kind of series: Number and Brightness.

B1: EGFP-EWSR1::FLI1 (natural protein, human, UniProt Q01844 1-264, looked up)
chain: MASTDYSTYSQAAAQQGYSAYTAQPTQGYAQTTQAYGQQSYGTYGQPTDVSYTQAQTTATYGQTAYATSYGQPPTGYTTPTAPQAYSQPVQGYGTGAYDTTTATVTTTQASYAAQSAYGTQPAYPAYGQQPAATAPTRPQDGNKPTETSQPQSSTGGYNQPSLGYGQSNYSYPQVPGSYPMQPVTAPPSYPPTSYSSTQPTSYDQSSYSQQNTYGQPSSYGQQSSYGQQSSYGQQPPTSYPPQTGSYSQAPSQYSQQSSSYGQQPSYDSVRRGAWGNNMNSGLNKSPPLGGAQTISKNTEQRPQPDPYQILGPTSSRLANPGSGQIQLWQFLLELLSDSANASCITWEGTNGEFKMTDPDEVARRWGERKSKPNMNYDKLSRALRYYYDKNIMTKVHGKRYAYKFDFHGIAQALQPHPTESSMYKYPSDISYMPSYHAHQQKVNFVPPHPSSMPVTSSSFFGAASQYWTSPTGGIYPNPNVPRHPNTHVPSHLGSYY
Turning to B1, the stoichiometry N (commonly the number of molecules, sites or subunits per partner or assembly) lay within 3 to 4 molecules.

B2: EGFP-∆63EWSR1::FLI1 (domain or fragment, human, UniProt Q01844 64-264, looked up)
chain: TAYATSYGQPPTGYTTPTAPQAYSQPVQGYGTGAYDTTTATVTTTQASYAAQSAYGTQPAYPAYGQQPAATAPTRPQDGNKPTETSQPQSSTGGYNQPSLGYGQSNYSYPQVPGSYPMQPVTAPPSYPPTSYSSTQPTSYDQSSYSQQNTYGQPSSYGQQSSYGQQSSYGQQPPTSYPPQTGSYSQAPSQYSQQSSSYGQQPSYDSVRRGAWGNNMNSGLNKSPPLGGAQTISKNTEQRPQPDPYQILGPTSSRLANPGSGQIQLWQFLLELLSDSANASCITWEGTNGEFKMTDPDEVARRWGERKSKPNMNYDKLSRALRYYYDKNIMTKVHGKRYAYKFDFHGIAQALQPHPTESSMYKYPSDISYMPSYHAHQQKVNFVPPHPSSMPVTSSSFFGAASQYWTSPTGGIYPNPNVPRHPNTHVPSHLGSYY
Regarding B2, the “stoichiometry N” value was 3 to 4 molecules.
